Measurements from patent US20150218257A1 (published 2015).

B1: 1443_C16 (PG16) human monoclonal antibody (antibody, V domains shown)
VH: QEQLVESGGGVVQPGGSLRLSCLASGFTFHKYGMHWVRQAPGKGLEWVALISDDGMRKYHSDSMWGRVTISRDNSKNTLYLQFSSLKVEDTAMFFCAREAGGPIWHDDVKYYDFNDGYYNYHYMDVWGKGTTVTVSS
VL: QSALTQPASVSGSPGQTITISCNGTSSDVGGFDSVSWYQQSPGKAPKVMVFDVSHRPSGISNRFSGSKSGNTASLTISGLHIEDEGDYFCSSLTDRSHRIFGGGTKVTVLG
B2: 1496_C09 (PG9) human monoclonal antibody (antibody, V domains shown)
VH: QRLVESGGGVVQPGSSLRLSCAASGFDFSRQGMHWVRQAPGQGLEWVAFIKYDGSEKYHADSVWGRLSISRDNSKDTLYLQMNSLRVEDTATYFCVREAGGPDYRNGYNYYDFYDGYYNYHYMDVWGKGTTVTVSS
VL: QSALTQPASVSGSPGQSITISCNGTSNDVGGYESVSWYQQHPGKAPKVVIYDVSKRPSGVSNRFSGSKSGNTASLTISGLQAEDEGDYYCKSLTSTRRRVFGTGTKLTVLG

Key:
[1] = biological target: HIV-1 92RW020 Env on pseudovirus (HIV-1 strain 92RW020); assay: cell-based or functional assay
[2] = biological target: HIV-1 ADA Env (gp160), on transfected 293 cells or on ADA pseudovirus (HIV-1 strain ADA); assay: cell-based or functional assay
[3] = biological target: HIV-1 JR-FL(E168K) Env on pseudovirus (HIV-1 strain JR-FL); assay: cell-based or functional assay
[4] = biological target: T1, HIV-1 YU2 gp160 expressed on the surface of transfected 293/293T cells (HIV-1 strain YU2, UniProt P35961 32-843); assay: binding to YU2 gp160 on the cell surface (FIG. 7)
T1 construct: whole, on cells

| Binder | IC50 (ug/ml), pseudovirus neutralisation, TZM-bl assay [1] [µg/mL] | IC50 (ug/ml), pseudovirus neutralisation, TZM-bl assay [2] [µg/mL] | IC50 (ug/ml), pseudovirus neutralisation, TZM-bl assay [3] [µg/mL] | binding result [4] |
| --- | --- | --- | --- | --- |
| B1 | 0.09 | 0.004 | 0.006 | binds |
| B2 | 0.1 | 0.2 |  |  |
